Measured values: patent publication US20200277374A1 (Alector, published 2020)

Tests used:
[1] = target: T1, human Siglec-7 expressed on human cells (primary monocytes, dendritic cells, macrophages, NK cells, … (human, UniProt Q9Y286 19-467)); experiment: FACS, human primary macrophages, 10 ug/ml mAb
T1 construct: Endogenous receptor on cells; also called Siglec-7 receptor

[2] = target: T1, human Siglec-7 expressed on human cells …; experiment: cell-based or functional assay
[3] = target: T1, human Siglec-7 expressed on human cells …; experiment: FACS titration on primary human dendritic cells, donor 359, 4 C
Procedure: Two Siglec-7 antibodies, 4E3 and 10B5, were titrated 2-fold for a 12-point curve with a concentration range of 6.67-0.00325 nM to assess binding and calculate half-maximal concentration (EC₅₀) for binding to primary human dendritic cells (FIG. 5B). Antibodies were serially diluted and incubated with cells in PBS with 1% BSA, 1 mM EDTA for 1 hour on ice (4° C.). Cells were pelleted and resuspended with goat anti-mouse secondary antibody conjugated with APC (BD Biosciences) at a 1:200 dilution in buffer. Secondary detection antibody was incubated for 30 minutes on ice (4° C.), then cells were washed 3 times in buffer before analyzing on a BD FACS Canto for APC MR. Data were analyzed with FlowJo Software (TreeStar).

[4] = target: T2, M185A (human, UniProt Q9Y286); experiment: flow cytometry on HEK-293T cells expressing the mutant; mean % of wild-type signal (range of duplicates)
T2 construct: clone of the siglec-7 mutation library; also called Siglec-7 M185A
T2 sequence (Q9Y286 19-467 M185A limits assumed): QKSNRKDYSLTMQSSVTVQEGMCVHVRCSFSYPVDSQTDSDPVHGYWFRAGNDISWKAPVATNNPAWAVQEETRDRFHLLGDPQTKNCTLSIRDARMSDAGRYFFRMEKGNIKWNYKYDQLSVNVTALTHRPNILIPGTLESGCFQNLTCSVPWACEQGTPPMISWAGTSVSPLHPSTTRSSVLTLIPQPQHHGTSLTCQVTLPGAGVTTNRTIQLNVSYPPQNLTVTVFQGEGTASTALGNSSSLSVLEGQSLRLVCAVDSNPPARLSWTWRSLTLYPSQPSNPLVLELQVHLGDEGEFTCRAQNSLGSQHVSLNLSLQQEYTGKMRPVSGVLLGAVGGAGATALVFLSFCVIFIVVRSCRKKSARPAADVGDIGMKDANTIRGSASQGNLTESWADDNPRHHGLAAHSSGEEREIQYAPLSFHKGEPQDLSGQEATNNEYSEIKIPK

[5] = target: T3, M30A (human, UniProt Q9Y286); experiment: as above
T3 construct: clone of the siglec-7 mutation library; also called Siglec-7 M30A
T3 sequence (Q9Y286 19-467 M30A limits assumed): as the sequence (Q9Y286 19-467 M185A limits assumed) above, with M12A, A167M counted along it

[6] = target: T4, V44A (human, UniProt Q9Y286); experiment: as above
T4 construct: clone of the siglec-7 mutation library; also called Siglec-7 V44A
T4 sequence (Q9Y286 19-467 V44A limits assumed): as the sequence (Q9Y286 19-467 M185A limits assumed) above, with V26A, A167M counted along it

[7] = target: T5, R45A (human, UniProt Q9Y286); experiment: as above
T5 construct: clone of the siglec-7 mutation library; also called Siglec-7 R45A
T5 sequence (Q9Y286 19-467 R45A limits assumed): as the sequence (Q9Y286 19-467 M185A limits assumed) above, with R27A, A167M counted along it

[8] = target: T6, S47A (human, UniProt Q9Y286); experiment: as above
T6 construct: clone of the siglec-7 mutation library; also called Siglec-7 S47A
T6 sequence (Q9Y286 19-467 S47A limits assumed): as the sequence (Q9Y286 19-467 M185A limits assumed) above, with S29A, A167M counted along it

[9] = target: T7, N81A (human, UniProt Q9Y286); experiment: as above
T7 construct: clone of the siglec-7 mutation library; also called Siglec-7 N81A
T7 sequence (Q9Y286 19-467 N81A limits assumed): as the sequence (Q9Y286 19-467 M185A limits assumed) above, with N63A, A167M counted along it

[10] = target: T8, I72A (human, UniProt Q9Y286); experiment: as above
T8 construct: clone of the siglec-7 mutation library; also called Siglec-7 I72A
T8 sequence (Q9Y286 19-467 I72A limits assumed): as the sequence (Q9Y286 19-467 M185A limits assumed) above, with I54A, A167M counted along it

[11] = target: T9, K104A (human, UniProt Q9Y286); experiment: as above
T9 construct: clone of the siglec-7 mutation library; also called Siglec-7 K104A
T9 sequence (Q9Y286 19-467 K104A limits assumed): as the sequence (Q9Y286 19-467 M185A limits assumed) above, with K86A, A167M counted along it

[12] = target: T10, Y50A (human, UniProt Q9Y286); experiment: as above
T10 construct: clone of the siglec-7 mutation library; also called Siglec-7 Y50A
T10 sequence (Q9Y286 19-467 Y50A limits assumed): as the sequence (Q9Y286 19-467 M185A limits assumed) above, with Y32A, A167M counted along it

[13] = target: T11, T103A (human, UniProt Q9Y286); experiment: as above
T11 construct: clone of the siglec-7 mutation library; also called Siglec-7 T103A
T11 sequence (Q9Y286 19-467 T103A limits assumed): as the sequence (Q9Y286 19-467 M185A limits assumed) above, with T85A, A167M counted along it

T1 sequence (Q9Y286 19-467): as the sequence (Q9Y286 19-467 M185A limits assumed) above, with A167M counted along it

% Positive [1]: 99.7% | MFI [1]: 6030 | Percent Siglec-7 Surface Expression, DCs [2]: 16.8% | Percent Siglec-7 Surface Expression, Monocytes [2]: 6.7% | Percent Siglec-7 Surface Expression, U937 cells [2]: 36.5% | EC50 [3]: 1.16 nM | Binding Reactivity (% WT) [4]: 29.1 % WT | Binding Reactivity (% WT) [5]: 89.9 % WT | Binding Reactivity (% WT) [6]: 93.9 % WT | Binding Reactivity (% WT) [7]: 37.3 % WT | Binding Reactivity (% WT) [8]: 81.7 % WT | Binding Reactivity (% WT) [9]: 153 % WT | Binding Reactivity (% WT) [10]: 130 % WT | Binding Reactivity (% WT) [11]: 13.6 % WT | Binding Reactivity (% WT) [12]: 108 % WT | Binding Reactivity (% WT) [13]: 96.3 % WT
B1: anti-Siglec-7 antibody 10B5 (antibody, V domains shown)
VH: QVHLQQSGPELVKPGASVKISCKASGYAFTNCWMNWVRQRPGKGLDWIGRIFPGNGHTNYSGKFKDKATLTEDKSSSTAYMQLSSLTSEDSAVYFCARDYSDYYFDYWGQGTTLTVSS
VL: DVQMTQTTSSLSASLGDRVTISCRASQDINTYLNWYQQKPDGTVKLLIYYTSRLHSGVPSRFSGSGSGTDYSLTISNLEQEDIATYFCQQGNTLPWTFGGGTKLEIK
notes: that light chain holds several Z and differs in its CDRs from S7-10B5.1 / 10B5L1; also called S7-10B5; mAb S7-10B5
